Experimental findings from patent publication US8748182B2, “Mutant proteins and methods for producing them” (Heptares Therapeutics Limited, priority 2007, dated 2014) are described below.

Where a chain is given by its changes, count along the chain named. Numbers in names are those of the source.

The nature of this data set: Thermostability of neurotensin receptor (NTR) mutants (3H-neurotensin binding). The format is physicochemical. The conditions noted are these: for thermostability, 3H-neurotensin (agonist) binding after the heating step: heated in the absence of the agonist; for thermostability, heated in the presence of 3H-neurotensin: Ligand(+) format. The protocol: FIG. 12 Flow chart showing the two different assay formats of ligand (+) and ligand (−) used to determine receptor thermostablity.
3. Mutants tested for thermostability by heating in the absence of the agonist were re-tested using a slightly different assay where the mutants were heated in the presence of ^3H-neurotensin (Ligand(+) format in FIG. 12). […] All of these also have increased thermostability. • 5. Preferred combinations are • a. Nag7m F358A+A86L+1260A+F342A Tm 51° C. (neurotensin bound) • b. Nag7n F358A+H103A+1260A+F342A Tm 51° C. (neurotensin bound) • Wildtype NTR has a Tm of 35° C. with neurotensin bound.

B1: D345A: NTR point mutant (protein, UniProt P20789 1-424, looked up, variant D345A)
Neurotensin receptor type 1: MHLNSSVPQGTPGEPDAQPFSGPQSEMEATFLALSLSNGSGNTSESDTAGPNSDLDVNTDIYSKVLVTAIYLALFVVGTVGNSVTAFTLARKKSLQSLQSTVHYHLGSLALSDLLILLLAMPVELYNFIWVHHPWAFGDAGCRGYYFLRDACTYATALNVASLSVERYLAICHPFKAKTLMSRSRTKKFISAIWLASALLAIPMLFTMGLQNRSGDGTHPGGLVCTPIVDTATVKVVIQVNTFMSFLFPMLVISILNTVIANKLTVMVHQAAEQGRVCTVGTHNGLEHSTFNMTIEPGRVQALRHGVLVLRAVVIAFVVCWLPYHVRRLMFCYISDEQWTTFLFAFYHYFYMLTNALFYVSSAINPILYNLVSANFRQVFLSTLACLCPGWRHRRKKRPTFSRKPNSMSSNHAFSTSATRETLY
Consider B1, for which the “thermostability, 3H-neurotensin (agonist) binding after the heating step” value (shortened to “thermostability, 3H-neurotensin”) is on record as “small but significant increase in thermostability”.

B2: T294A: NTR point mutant (protein, UniProt P20789 1-424, looked up, variant T294A)
Neurotensin receptor type 1: B1 Neurotensin receptor type 1 with T294A, A345D
B2: the “thermostability, heated in the presence of 3H-neurotensin” value (shortened to “thermostability, heated in the presence”) is “improved thermostability”.

B3: M250A: NTR point mutant (protein, UniProt P20789 1-424, looked up, variant M250A)
Neurotensin receptor type 1: B1 Neurotensin receptor type 1 with M250A, A345D
As to B3, the “thermostability, heated in the presence” value is “improved thermostability”.

B4: R183A: NTR point mutant (protein, UniProt P20789 1-424, looked up, variant R183A)
Neurotensin receptor type 1: B1 Neurotensin receptor type 1 with R183A, A345D
On to B4, for which the “thermostability, heated in the presence” value was “improved thermostability”.

B5: C386A: NTR point mutant (protein, UniProt P20789 1-424, looked up, variant C386A)
Neurotensin receptor type 1: B1 Neurotensin receptor type 1 with A345D, C386A
For B5, the “thermostability, 3H-neurotensin” value was “small but significant increase in thermostability”.

B6: 1260A: NTR point mutant (Ile 260) (protein, UniProt P20789 1-424, looked up, variant I260A)
Neurotensin receptor type 1: B1 Neurotensin receptor type 1 with I260A, A345D
Regarding B6, the “thermostability, heated in the presence” value is given as “improved thermostability”.

B7: A86L: NTR point mutant (protein, UniProt P20789 1-424, looked up, variant A86L)
Neurotensin receptor type 1: B1 Neurotensin receptor type 1 with A86L, A345D
In the case of B7, the “thermostability, heated in the presence” value is listed as “improved thermostability” and the “thermostability, 3H-neurotensin” value is reported as “small but significant increase in thermostability”.

B8: S373A: NTR point mutant (protein, UniProt P20789 1-424, looked up, variant S373A)
Neurotensin receptor type 1: B1 Neurotensin receptor type 1 with A345D, S373A
As to B8, the “thermostability, heated in the presence” value is recorded as “improved thermostability”.

B9: F342A: NTR point mutant (protein, UniProt P20789 1-424, looked up, variant F342A)
Neurotensin receptor type 1: B1 Neurotensin receptor type 1 with F342A, A345D
Regarding B9, the “thermostability, heated in the presence” value is reported as “improved thermostability”.

B10: V313A: NTR point mutant (protein, UniProt P20789 1-424, looked up, variant V313A)
Neurotensin receptor type 1: B1 Neurotensin receptor type 1 with V313A, A345D
As to B10, the “thermostability, heated in the presence” value is given as “improved thermostability”.

B11: V309A: NTR point mutant (protein, UniProt P20789 1-424, looked up, variant V309A)
Neurotensin receptor type 1: B1 Neurotensin receptor type 1 with V309A, A345D
Take B11: the “thermostability, heated in the presence” value is “improved thermostability”.

B12: Y349A: NTR point mutant (protein, UniProt P20789 1-424, looked up, variant Y349A)
Neurotensin receptor type 1: B1 Neurotensin receptor type 1 with A345D, Y349A
In the case of B12, the “thermostability, 3H-neurotensin” value is on record as “small but significant increase in thermostability”.

B13: P389A: NTR point mutant (protein, UniProt P20789 1-424, looked up, variant P389A)
Neurotensin receptor type 1: B1 Neurotensin receptor type 1 with A345D, P389A
With B13, the “thermostability, heated in the presence” value is “improved thermostability”.

B14: N370A: NTR point mutant (protein, UniProt P20789 1-424, looked up, variant N370A)
Neurotensin receptor type 1: B1 Neurotensin receptor type 1 with A345D, N370A
B14: the “thermostability, heated in the presence” value is listed as “improved thermostability”.

B15: A177L: NTR point mutant (protein, UniProt P20789 1-424, looked up, variant A177L)
Neurotensin receptor type 1: B1 Neurotensin receptor type 1 with A177L, A345D
B15: the “thermostability, heated in the presence” value is “improved thermostability”.

B16: V360A: NTR point mutant (protein, UniProt P20789 1-424, looked up, variant V360A)
Neurotensin receptor type 1: B1 Neurotensin receptor type 1 with A345D, V360A
As to B16, the “thermostability, heated in the presence” value was “improved thermostability”.

B17: A69L: NTR point mutant (protein, UniProt P20789 1-424, looked up, variant A69L)
Neurotensin receptor type 1: B1 Neurotensin receptor type 1 with A69L, A345D
With B17, the “thermostability, heated in the presence” value is on record as “improved thermostability”.

B18: H393A: NTR point mutant (protein, UniProt P20789 1-424, looked up, variant H393A)
Neurotensin receptor type 1: B1 Neurotensin receptor type 1 with A345D, H393A
As for B18, the “thermostability, 3H-neurotensin” value is on record as “small but significant increase in thermostability”.

B19: K397A: NTR point mutant (protein, UniProt P20789 1-424, looked up, variant K397A)
Neurotensin receptor type 1: B1 Neurotensin receptor type 1 with A345D, K397A
In the case of B19, the “thermostability, 3H-neurotensin” value is recorded as “small but significant increase in thermostability”.

B20: A73L: NTR point mutant (protein, UniProt P20789 1-424, looked up, variant A73L)
Neurotensin receptor type 1: B1 Neurotensin receptor type 1 with A73L, A345D
For the molecule B20, the “thermostability, heated in the presence” value is given as “improved thermostability”.

B21: L308A: NTR point mutant (protein, UniProt P20789 1-424, looked up, variant L308A)
Neurotensin receptor type 1: B1 Neurotensin receptor type 1 with L308A, A345D
With B21, the “thermostability, heated in the presence” value is on record as “improved thermostability”.

B22: A385L: NTR point mutant (protein, UniProt P20789 1-424, looked up, variant A385L)
Neurotensin receptor type 1: B1 Neurotensin receptor type 1 with A345D, A385L
Consider B22, for which the “thermostability, heated in the presence” value is “improved thermostability” and the “thermostability, 3H-neurotensin” value was “small but significant increase in thermostability”.

B23: L310A: NTR point mutant (protein, UniProt P20789 1-424, looked up, variant L310A)
Neurotensin receptor type 1: B1 Neurotensin receptor type 1 with L310A, A345D
B23: the “thermostability, heated in the presence” value was “improved thermostability”.

B24: F380A: NTR point mutant (protein, UniProt P20789 1-424, looked up, variant F380A)
Neurotensin receptor type 1: B1 Neurotensin receptor type 1 with A345D, F380A
In the case of B24, the “thermostability, heated in the presence” value is on record as “improved thermostability”.

B25: G306A: NTR point mutant (protein, UniProt P20789 1-424, looked up, variant G306A)
Neurotensin receptor type 1: B1 Neurotensin receptor type 1 with G306A, A345D
With B25, the “thermostability, heated in the presence” value is recorded as “improved thermostability”.

B26: 1253A: NTR point mutant (Ile 253) (protein, UniProt P20789 1-424, looked up, variant I253A)
Neurotensin receptor type 1: B1 Neurotensin receptor type 1 with I253A, A345D
As to B26, the “thermostability, heated in the presence” value was “improved thermostability”.

B27: R395A: NTR point mutant (protein, UniProt P20789 1-424, looked up, variant R395A)
Neurotensin receptor type 1: B1 Neurotensin receptor type 1 with A345D, R395A
As for B27, the “thermostability, heated in the presence” value was “improved thermostability”.

B28: G390A: NTR point mutant (protein, UniProt P20789 1-424, looked up, variant G390A)
Neurotensin receptor type 1: B1 Neurotensin receptor type 1 with A345D, G390A
For B28, the “thermostability, heated in the presence” value is “improved thermostability”.

B29: Nag7m: NTR with F358A+A86L+I260A+F342A (protein)
chain: TSESDTAGPNSDLDVNTDIYSKVLVTAIYLALFVVGTVGNSVTLFTLARKKSLQSLQSTVHYHLGSLALSDLLILLLAMPVELYNFIWVHHPWAFGDAGCRGYYFLRDACTYATALNVASLSVERYLAICHPFKAKTLMSRSRTKKFISAIWLASALLAIPMLFTMGLQNRSGDGTHPGGLVCTPIVDTATVKVVIQVNTFMSFLFPMLVISILNTVAANKLTVMVHQAAEQGRVCTVGTHNGLEHSTFNMTIEPGRVQALRHGVLVLRAVVIAFVVCWLPYHVRRLMFCYISDEQWTTALFDFYHYFYMLTNALAYVSSAINPILYNLVSANFRQVFLSTLACLCPGWRHRRKKRPTFSRKPNSMSSNHAFSTSATRETLY
On to B29, for which the “Tm (neurotensin bound)” value amounted to 51 °C.

B30: Wildtype NTR: wild-type rat neurotensin receptor (protein)
chain: B29 chain with L44A, A218I, A300F, A316F
For B30, the “Tm (neurotensin bound)” value was 35 °C.

B31: Nag7n: NTR with F358A+H103A+I260A+F342A (protein)
chain: B29 chain with L44A, H61A
Regarding B31, the “Tm (neurotensin bound)” value came to 51 °C.
